According to patent US20100285583A1, “COMPOUNDS AND METHODS FOR INHIBITING PLATELET AGGREGATION” (priority 2009, published 2010):

What was measured:
Washed platelets = test: Platelet aggregation under flow assay (microfluidics channel); type: cell-based, human; settings: 10 μM, with sulfatide liposomes, shear rate 70 s^−1
Procedure: (§1) The microfluidic device consisted in a simple straight channel 500 μm wide, 50 μm deep and 3.62 cm long. A silicon master stamp was fabricated on a <100> silicon substrate following a previously described process (Ross et al. Ann. Rev. Med. 1987, 38:71-79). Flow was driven using a micro-syringe pump (Cole-Parmer) with a 1 mL syringe connected to the channel inlet by 30 cm of Cole-Parmer gauge 20 Teflon tubing. After priming the system with the sample, the pump was set to 0.05 mL/h (equivalent to an average velocity of 0.55 mm/sec in the channel), which is in the range of in vivo blood velocity (0.1-1.5 mm/sec (9)) and causes a shear rate of 70 sec−1. This flow rate was maintained for 1 min prior to the experiments. Platelets flowing through the channel were monitored using an inverted light microscope (DMI 6000B, Leica Microsystems) equipped with a digital camera (DFC420, Leica Microsystems).
Platelet aggregation is mediated by αIIbβ3 integrin interactions with fibrinogen and fibrin linking platelets together (Furie et al., J. Clin. Invest. 2005; 115 (12): 3355-3362; and Andrews et al., Thromb Res. 2004; 114:447-453). P-selectin links aggregated platelets together stabilizing clot formation (Merten 2001). Sulfatides stimulate increased levels of both αIIbβ3 integrin and P-selectin expression on platelets (Merten 2005). […]

[1] = Competition SPR, PtdIns(4,5)P2 pre-incubated protein on sulfatide liposomes; settings: 5 μM protein pre-incubated with increasing PtdIns(4,5)P2; read-out: IC50 of PtdIns(4,5)P2 competition for sulfatide binding
Procedure: Surface plasmon resonance (SPR) binding experiments were performed on a BIAcore X instrument using L1 sensorchips coated with ˜0.5 mM of mixed sulfatides or PtdIns(4,5)P2 size calibrated liposomes. N-PTB domain or its mutants binding experiments were performed in a degassed solution containing 10 mM Tris-HCI (pH 7.4) and 150 mM NaCl. This buffer was used during equilibration, association and dissociation phases. Proteins were added to this buffer at the indicated concentrations. Regeneration of the phospholipid bilayer after dissociation phase was carried out using 20 mM NaOH. For competition SPR, increasing molar amounts of dioctanoyl PtdIns(4,5)P2 were preincubated with 5 μM N-PTB for 20 min at room temperature. The entire reaction was then exposed to an L1 sensorchip containing immobilized sulfatide liposomes (˜0.5 mM).

[2] = tested on: platelet and leukocyte mixtures; test: Platelet-leukocyte aggregation under flow; type: cell-based, human; settings: 10 μM, with sulfatide liposomes
Procedure: as §1
To quantify the ability of N-PTB to block platelet-leukocyte binding under physiological flow conditions, platelet and leukocyte mixtures were flown through a microfluidics device, as described above, and aggregation was measured using light microscopy. Untreated cell suspensions ([…]) were flown for 10 minutes and the channel was scanned for leukocyte adhesion and inclusion into platelet aggregates and representative pictures were taken (FIG. 18A-B).

[3] = Liposome-binding assay, PtdIns(4,5)P2 liposomes; settings: liposomes with PtdIns(4,5)P2
Procedure: (§2) Lipid stocks including sulfatides, PE, PS, and PtdIns(4,5)P2 were dissolved in chloroform:methanol:water (1:2;0.8, 65:35:8, 65:35:4 and 65:35:8, respectively), whereas cholesterol and PC were dissolved in chloroform:methanol (1:1). Sulfatides liposomes were prepared in a weight ratio of 1:1:1:4 of PC:PE:cholesterol:sulfatides. PtdIns(4,5)P2 liposomes were prepared in a percent ratio of 50:20:10:10:10 of PC:PE:PS:cholesterol:PtdIns(4,5)P2. Controls were prepared by adjusting the ratios with PC. Lipid films were generated by lyophilization overnight and hydrated in 20 mM Tris-HCl (pH 6.8), 100 mM NaCl, 2 mM dithiothreitol (DTT) at 1 mg/mL and freeze-thawed 3 times. Liposomes were sonicated and further pelleted and suspended in 4 mg/mL. Ten μg of protein were incubated with 125 μg of total lipids for 20 min at RT. Liposome-bound and free-protein samples were separated by centrifugation and analyzed by SDS-PAGE. Bands were quantified using AlphaImager, and the percentage of total protein each fraction contained was calculated from the total protein.

[4] = Liposome-binding assay, sulfatide liposomes; settings: liposomes with sulfatides
Procedure: as §2

IC50 [1]: ~2000 nM | sulfatide binding [4]: bound to sulfatide-enriched liposomes
B1: N-PTB: N-terminal phosphotyrosine binding domain (residues 1-241) of human Disabled-2 (Dab2), expressed as GST-fusion in E. coli (protein)
chain: MSNEVETSATNGQPDQQAAPKAPSKKEKKKGPEKTDEYLLARFKGDGVKYKAKLIGIDDVPDARGDKMSQDSMMKLKGMAARGRSQGQHKQRIWVNISLSGIKIIDEKTGVIEHEHPVNKISFIARDVTDNRAFGYVCGGEGQHQFFAIKTGQQAEPLVVDLKDLFQVIYNVKKKEEEKKKIEEASKAVENGSEALMILDDQTNKLKSGVDQMDLFGDMSTPPDLNSPTESKDILLVDLNS
inhibition of sulfatide induced platelet aggregation under flow (Washed platelets): returned to the size of untreated platelets | inhibition of sulfatide induced platelet aggregation under flow (Washed platelets; listed as N-PTB^4M): limited inhibition of platelet aggregate size but not adhesion | effect on leukocyte adhesion and platelet-leukocyte aggregates under flow [2]: great reduction in observed leukocyte adhesion as well as platelet-leukocyte aggregates | effect on leukocyte adhesion and platelet-leukocyte aggregates under flow ([2]; listed as N-PTB^4M): unable to affect the adhesion and aggregation of leukocytes | PtdIns(4,5)P2 binding [3]: bound to PtdIns(4,5)P2-containing liposomes
